Measurements reported in IntAct's records for PubMed 31515488.

B1: Transmembrane 4 L6 family member 4 (Homo sapiens), P48230 (parent)
chain: MCTGGCARCLGGTLIPLAFFGFLANILLFFPGGKVIDDNDHLSQEIWFFGGILGSGVLMIFPALVFLGLKNNDCCGCCGNEGCGKRFAMFTSTIFAVVGFLGAGYSFIISAISINKGPKCLMANSTWGYPFHDGDYLNDEALWNKCREPLNVVPWNLTLFSILLVVGGIQMVLCAIQVVNGLLGTLCGDCQCCGCCGGDGPV
partner: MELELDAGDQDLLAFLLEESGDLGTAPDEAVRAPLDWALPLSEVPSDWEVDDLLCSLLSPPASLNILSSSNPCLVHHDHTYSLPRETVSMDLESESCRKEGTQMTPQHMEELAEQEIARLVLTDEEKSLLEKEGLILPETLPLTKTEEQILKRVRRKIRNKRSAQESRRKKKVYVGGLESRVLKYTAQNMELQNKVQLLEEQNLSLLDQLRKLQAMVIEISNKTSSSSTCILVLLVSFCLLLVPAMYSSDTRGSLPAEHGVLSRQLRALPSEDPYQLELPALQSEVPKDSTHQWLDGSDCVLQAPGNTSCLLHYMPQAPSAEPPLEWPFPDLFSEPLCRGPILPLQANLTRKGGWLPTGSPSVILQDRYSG
B2: Myogenin (Homo sapiens), P15173 (parent)
chain: MELYETSPYFYQEPRFYDGENYLPVHLQGFEPPGYERTELTLSPEAPGPLEDKGLGTPEHCPGQCLPWACKVCKRKSVSVDRRRAATLREKRRLKKVNEAFEALKRSTLLNPNQRLPKVEILRSAIQYIERLQALLSSLNQEERDLRYRGGGGPQPGVPSECSSHSASCSPEWGSALEFSANPGDHLLTADPTDAHNLHSLTSIVDSITVEDVSVAFPDETMPN
partner: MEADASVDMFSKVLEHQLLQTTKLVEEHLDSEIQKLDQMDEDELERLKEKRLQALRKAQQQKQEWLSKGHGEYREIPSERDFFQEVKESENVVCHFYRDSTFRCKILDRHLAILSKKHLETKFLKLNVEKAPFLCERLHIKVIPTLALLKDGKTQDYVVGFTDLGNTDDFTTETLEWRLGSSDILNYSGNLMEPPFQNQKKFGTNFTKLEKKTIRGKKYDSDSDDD
B3: Fructose-1,6-bisphosphatase isozyme 2 (Homo sapiens), O00757 (parent)
chain: MTDRSPFETDMLTLTRYVMEKGRQAKGTGELTQLLNSMLTAIKAISSAVRKAGLAHLYGIAGSVNVTGDEVKKLDVLSNSLVINMVQSSYSTCVLVSEENKDAIITAKEKRGKYVVCFDPLDGSSNIDCLASIGTIFAIYRKTSEDEPSEKDALQCGRNIVAAGYALYGSATLVALSTGQGVDLFMLDPALGEFVLVEKDVKIKKKGKIYSLNEGYAKYFDAATTEYVQKKKFPEDGSAPYGARYVGSMVADVHRTLVYGGIFLYPANQKSPKGKLRLLYECNPVAYIIEQAGGLATTGTQPVLDVKPEAIHQRVPLILGSPEDVQEYLTCVQKNQAGS
B4: X-linked retinitis pigmentosa GTPase regulator (Homo sapiens), Q92834 (parent)
chain: MREPEELMPDSGAVFTFGKSKFAENNPGKFWFKNDVPVHLSCGDEHSAVVTGNNKLYMFGSNNWGQLGLGSKSAISKPTCVKALKPEKVKLAACGRNHTLVSTEGGNVYATGGNNEGQLGLGDTEERNTFHVISFFTSEHKIKQLSAGSNTSAALTEDGRLFMWGDNSEGQIGLKNVSNVCVPQQVTIGKPVSWISCGYYHSAFVTTDGELYVFGEPENGKLGLPNQLLGNHRTPQLVSEIPEKVIQVACGGEHTVVLTENAVYTFGLGQFGQLGLGTFLFETSEPKVIENIRDQTISYISCGENHTALITDIGLMYTFGDGRHGKLGLGLENFTNHFIPTLCSNFLRFIVKLVACGGCHMVVFAAPHRGVAKEIEFDEINDTCLSVATFLPYSSLTSGNVLQRTLSARMRRRERERSPDSFSMRRTLPPIEGTLGLSACFLPNSVFPRCSERNLQESVLSEQDLMQPEEPDYLLDEMTKEAEIDNSSTVESLGETTDILNMTHIMSLNSNEKSLKLSPVQKQKKQQTIGELTQDTALTENDDSDEYEEMSEMKEGKACKQHVSQGIFMTQPATTIEAFSDEEVGNDTGQVGPQADTDGEGLQKEVYRHENNNGVDQLDAKEIEKESDGGHSQKESEAEEIDSEKETKLAEIAGMKDLREREKSTKKMSPFFGNLPDRGMNTESEENKDFVKKRESCKQDVIFDSERESVEKPDSYMEGASESQQGIADGFQQPEAIEFSSGEKEDDEVETDQNIRYGRKLIEQGNEKETKPIISKSMAKYDFKCDRLSEIPEEKEGAEDSKGNGIEEQEVEANEENVKVHGGRKEKTEILSDDLTDKAEDHEFSKTEELKLEDVDEEINAENVESKKKTVGDDESVPTGYHSKTEGAERTNDDSSAETIEKKEKANLEERAICEYNENPKGYMLDDADSSSLEILENSETTPSKDMKKTKKIFLFKRVPSINQKIVKNNNEPLPEIKSIGDQIILKSDNKDADQNHMSQNHQNIPPTNTERRSKSCTIL
partner: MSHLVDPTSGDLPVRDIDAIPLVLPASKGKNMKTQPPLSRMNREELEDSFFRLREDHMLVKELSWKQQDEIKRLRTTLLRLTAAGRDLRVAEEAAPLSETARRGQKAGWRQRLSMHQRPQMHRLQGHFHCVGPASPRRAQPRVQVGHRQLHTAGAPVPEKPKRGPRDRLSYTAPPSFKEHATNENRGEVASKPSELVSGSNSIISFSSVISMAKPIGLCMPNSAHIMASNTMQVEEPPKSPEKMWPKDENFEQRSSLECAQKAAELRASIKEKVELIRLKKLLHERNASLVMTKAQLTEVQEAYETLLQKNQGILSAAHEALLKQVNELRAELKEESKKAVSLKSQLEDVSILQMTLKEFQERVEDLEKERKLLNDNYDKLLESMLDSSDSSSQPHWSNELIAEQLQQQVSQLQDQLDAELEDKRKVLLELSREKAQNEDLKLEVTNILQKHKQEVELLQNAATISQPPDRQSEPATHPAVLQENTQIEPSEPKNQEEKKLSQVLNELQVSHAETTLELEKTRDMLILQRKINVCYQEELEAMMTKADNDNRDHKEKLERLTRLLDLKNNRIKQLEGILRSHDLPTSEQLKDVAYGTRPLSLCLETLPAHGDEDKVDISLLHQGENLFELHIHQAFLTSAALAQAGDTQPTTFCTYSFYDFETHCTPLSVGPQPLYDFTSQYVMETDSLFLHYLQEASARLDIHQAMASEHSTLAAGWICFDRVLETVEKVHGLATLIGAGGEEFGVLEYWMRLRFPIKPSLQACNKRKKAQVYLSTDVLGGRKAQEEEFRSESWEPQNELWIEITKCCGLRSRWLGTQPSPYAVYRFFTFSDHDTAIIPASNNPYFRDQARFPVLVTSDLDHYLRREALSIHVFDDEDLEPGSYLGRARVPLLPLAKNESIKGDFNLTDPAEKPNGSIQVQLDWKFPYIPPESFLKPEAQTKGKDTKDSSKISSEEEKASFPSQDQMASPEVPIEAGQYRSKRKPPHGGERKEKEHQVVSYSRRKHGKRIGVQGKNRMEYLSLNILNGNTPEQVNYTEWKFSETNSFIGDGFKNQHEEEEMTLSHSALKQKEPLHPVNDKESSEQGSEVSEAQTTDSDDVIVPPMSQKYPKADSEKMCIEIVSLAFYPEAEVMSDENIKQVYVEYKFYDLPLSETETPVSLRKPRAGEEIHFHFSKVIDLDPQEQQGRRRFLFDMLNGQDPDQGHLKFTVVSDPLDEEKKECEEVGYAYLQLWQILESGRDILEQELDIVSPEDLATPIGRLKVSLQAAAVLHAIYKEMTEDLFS
B5: FXYD domain-containing ion transport regulator 3 (Homo sapiens), Q14802 (parent)
chain: MQKVTLGLLVFLAGFPVLDANDLEDKNSPFYYDWHSLQVGGLICAGVLCAMGIIIVMSAKCKCKFGQKSGHHPGETPPLITPGSAQS
partner: B1 partner

Variants of: B1
Details: with creb3_human CREB3, O43889

| effect of a mutation on the interaction | Variant |
| --- | --- |
| with no effect | A63V |

Variants of: B2
Details: with txnd9_human TXNDC9, O14530

| effect of a mutation on the interaction | Variant |
| --- | --- |
| disrupting interaction strength | A181T |
| with no effect | P49H |

Variants of: B3
Details: with FBP1, P09467
FBP1, P09467, sequence (P09467 whole entry): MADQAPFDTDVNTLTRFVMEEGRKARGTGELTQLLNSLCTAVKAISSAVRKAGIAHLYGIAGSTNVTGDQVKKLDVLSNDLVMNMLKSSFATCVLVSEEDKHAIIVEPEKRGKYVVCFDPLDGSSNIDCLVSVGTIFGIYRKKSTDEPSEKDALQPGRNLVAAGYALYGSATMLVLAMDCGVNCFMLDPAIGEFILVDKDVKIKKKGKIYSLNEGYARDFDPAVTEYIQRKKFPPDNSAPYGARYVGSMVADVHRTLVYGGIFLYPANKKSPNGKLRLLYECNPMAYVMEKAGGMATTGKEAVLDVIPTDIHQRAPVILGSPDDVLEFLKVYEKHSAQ

| effect of a mutation on the interaction | Variant |
| --- | --- |
| with no effect | Y216C |

Variants of: B4
Details: with rpgr1_human RPGRIP1, Q96KN7

| Variant | effect of a mutation on the interaction |
| --- | --- |
| I75V | with no effect |
| Q184H | with no effect |

Continued, values first:

| effect of a mutation on the interaction | Variant |
| --- | --- |
| with no effect | R425K |
| with no effect | C302S |
| with no effect | I431V |
| with no effect | Q456R |

Variants of: B5
Details: with creb3_human CREB3, O43889

| effect of a mutation on the interaction | Variant |
| --- | --- |
| disrupting interaction strength | G40S |
